From the DeepSol protein solubility set

Assay: soluble on expression in E. coli; label from the status in PepcDB or PDB records

MLTNCASKTLAAVRANIRAIATSSARASDNLFVHRDTPEDNPNIPFEFTAENKKRVEAILSIYPEGHKRGAMIPLLDLAQRQYGWLPISAMHKVAEILQLPNMRVYEVATFYTMFMRKPTGKYHIQVCTTTPCWLRGSDDILETCKKQLGIGVGDTTKDRKFTISEVECLGACVNAPMVAINDDYYEDLTSKDMQDILNDLKADKISPPGPRNGRFASEPKGEPTSLSEEPKGPGFGLQAGL
soluble on expression in E. coli: not soluble

MGSDKIHHHHHHMPHKASVFIVEFKFELESCPLGVVIPLEESKNKLASVKPLVDLTRPDMERVNQLILSRAGSDVQMIPEVANHLISSGGKRLRPMLTLASASMFGYEGDNHIKLATSVEFMHTATLLHDDVVDESDLRRGKSTARTIWGNQASVLVGDFLLGQAFRMMVDVGSLDALDVLSTAASVIAEGEVLQLSVAKNMETTEDDYLQVIRAKTAALFAAAAEVGPIVAKTDKASRSALKSYGMNLGLAFQLVDDVLDYGGKSADLGKNTGDDFREGKITLPVILSYRRGTQDERAFWRNAIEKGESSDENLEKALGLITKYNGLGDTIGRATHYGTIARDALAPLPQSPWKNALLEVIDFCIERLN
soluble on expression in E. coli: not soluble

MGSDKIHHHHHHMKISLGPIHYYWSKENIEQFYRRAEHWPVDIVYLGETVCAKRRALRSADWLDIAARLTDAGKEVVLSTLALLEANSDLLQLERICANTHYLVEANDMSAVHLLAGRGPFVIGPHINCYNAETLSLLADLGGRRWIPPVELPATTIAMLQNTRPETMETEAFAYGYLPLSFSARCFTARADNVGKDACELRCIKDPEGRALFTQEQERLFTINGIQLQSGIPCNLLNETVAMSEMGMDIVRISPQLTATESVIRAFHAVLNGEISPPVEYGSPACNGYWYGKPGMQFSPVQGH
soluble on expression in E. coli: not soluble

DVTGLPTGFRDLDRITTGLHPDQLIILAARPAVGKTAFVLNIAQNVGTKQNRPVAIFSLEMGAESLVDRMLAAEGMVDSHSLRTGQLTDQDWNNVTIAQGALADAPIYIDDTPGIKITEIRARSRKLSQEVDDGLGLIVIDYLQLISGTRPENRQQEVSEISRQLKILAKELKVPVIALSQLSRGVEQRQDKRPVLSDI
soluble on expression in E. coli: not soluble

MKLFISPGACSLAPHIALRETGADFEAVKVDLAVRKTEAGEDFLTVNPSGKVPALTLDSGETLTENPAILLYIADQNPASGLAPAEGSLDRYRLLSRLSFLGSEFHKAFVPLFAPATSDEAKAAAAESVKNHLAALDKELAGRDHYAGNAFSVADIYLYVMLGWPAYVGIDMAAYPALGAYAGKIAQRPAVGAALKAEGLA
soluble on expression in E. coli: soluble

MGSDKIHHHHHHMKRVERVIITCAVTGSIHTPSMSPYLPVTPEQIAADSVAAAQAGAAMLHLHARNPRTGRPEQTPERFMEFLPRIREQCGAILNITTGGGLGMTLEERLAPAIAARPEVASMNMGSLNFNISGAAGKIRQFQHEWEKPYLEGTNDFILSNTFSQIEHGMRVLGESGTRFEFECYDVGHLYNLAHFVDRGLVKPPFFVQCIFGILGGIGADPENLLHMRAIADRLFGADYLLSVLAAGRHQMPFVSLSAILGGSVRVGLEDSLFIARHQLARSNAEQVAKIRRIVEELGLTVATADEARAMLATKGGDNVGF
soluble on expression in E. coli: not soluble

MVEVHACSPGCRHHLGGAGWGDAPLVRLGYNKEARAKKFPYLKALLERPLVFDGAMGTELQKRDLTPEDYGGEAYFGCPEVLNRTRPEVVREIHLAYLEAGAEVIETNTFGALRHVLAEYGLEEAAEELAFLGARIAREAADPHGAFVAGALGPGTKLVSLGQISWDALYRAYKEAARGLLKGGVDLILLETAQDILQVRCAVLAVREAMAEVGREVPLQVQVTFEATGTMLVGTDEQAALAALESLPVDVVGMNCATGPDLMDSKVRYFAEHSTRFVSCLPNAGLPRNEGGRVVYDLTPEELAKWHLKFVAEYGVNAVGGCCGTGPEHIRKVAEAVKGLAPKPRPESFPPQVASLYQAVSLKQEASLFLVGERLNATGSKRFREMLFARDLEGILALAREQVEEGAHALDLSVAWTGRDELEDLRWLLPHLATALTVPVMVDSTSPEAMELALKYLPGRVLLNSANLEDGLERFDRVASLAKAHGAALVVLAIDEKGMAKTREEKVRVALRMYERLTEHHGLRPEDLLFDLLTFPITQGDEESRPLAKETLLAMEELRERLPGVGFVLGVSNVSFGLKPRARRVLNSVFLDEARKRGLTAAIVDAGKILPISQIPEEAYALALDLIYDRRKEGFDPLLAFMAYFEAHKEDPGKREDAFLALPLLERLKRRVVEGRKQGLEADLEEALKAGHKPLDLINGPLLAGMKEVGDLFGAGKMQLPFVLQAAEVMKRAVAYLEPHMEKKGEGKGTLVLATVKGDVHDIGKNLVDIILSNNGYRVVNLGIKVPIEEILKAVEAHKPHAVGMSGLLVKSTLVMKENLEYMRDRGYTLPVILGGAALTRSYVEELRAIYPNVYYAEDAFEGLRLMEELTGHAPPELTRKAPARPKREAPKVAPRARPVGEAPAVPRPPFFGVRVEEGLDLATIAHYVNKLALYRGQWGYSRKGLSREAWQALVEREAEPVFQRLLKEAMAEGWLEPKVLYGFFPVAREGEELLVFSPETGEVLERFRFPRQKGGGLSLVDYFRPRFAAPLGDEADWMPKEAFRAGARDVLGVQLVTMGEAPSRKAQALFASGAYQDYLFVHGFSVEMTEALAEYWHKRMRQMWGIAHQDATEIQKLFQQGYQGARYSFGYPACPDLADQAKLDRLMGFHRVGVRLTENFQLEPEHATSALVVHHPEARYFSVD
soluble on expression in E. coli: soluble

MNEHHQPFEEIKLINANGAEQWSARQLGKLLGYSEYRHFIPVLTRAKEACENSGHTIDDHFEEILDMVKIGSNAKRALKDIVLSRYACYLVVQNGDPAKPVIAAGQTYFAIQTRRQELADDEAFKQLREDEKRLFLRNELKEHNKQLVEAAQQAGVATATDFAIFQNHGYQGLYGGLDQKAIHQRKGLKKNQKILDHMGSTELAANLFRATQTEEKLKRDGVNSKQQANTTHFDVGRKVRQTIQELGGTMPEELPTPQVSIKQLENSVKITEKK
soluble on expression in E. coli: soluble

VRQRTIVCPLIQNDGAYLLCKMADDRGVFPGQWAISGGGVEPGERIEEALRREIREELGEQLLLTEITPWTFSDDIRTKTYADGRKEEIYMIYLIFDCVSANREVKINEEFQDYAWVKPEDLVHYDLNVATRKTLRLKGLL
soluble on expression in E. coli: soluble

MAARLAASRIVHAGRGISQPTPFGKRMDRLSNRVWGEVVMPTDTKSLKVVRVMSAEPYETKEQLSPKYYPNLPMFHYLTKMLRFHGLFFDDHVVFRDVQDNLKIIRGKVVRPPIGQGKRAQLRGKK
soluble on expression in E. coli: not soluble

MGSDKIHHHHHHMEFLRNTWYAAGWSQDLAAGAMLGRTMLNEQLVLFRADDGTVSALSDICPHRFAPLHLGKIVDGCRIQCAYHALEFDGTGACVKNPHGKQKIPAAAKLQAYPVVEKHSLIWVWMGEQAAADPSVIPDFSMLDPDSGFQVSRRDWLHMDASYDLVVDNLMDLSHTAFLHDGILGSKYTIKADTSLEQTGETVKVTRLMPNVPVPGFFDLMFNRDGGIVDYWTEIRWNLPGCLMNNTGVTLPGAPRSEGTGVYGMHFLTPETDVSCWYHFAAVRQNPRTWGEPIDTEIKEKISDLRRYAFEEQDQWIIKAQQQTILRAKGNLQPVSLETDIGIERYKRILKAALVAERSGSTMAA
soluble on expression in E. coli: not soluble

MSKIIGIDLGTTNSCVAVLEGGEVKVIPNPEGNRTTPSVVAFKNGERLVGEVAKRQAITNPNTIISIKRHMGTDYKVEIEGKQYTPQEISAIILQYLKSYAEDYLGEPVTRAVITVPAYFNDAQRQATKDAGRIAGLEVERIINEPTAAALAYGLDKEEDQTILVYDLGGGTFDVSILELGDGVFEVKATAGDNHLGGDDFDQVIIDYLVNQFKQEHGIDLSKDKMALQRLKDAAEKAKKELSGVTQTQISLPFISANENGPLHLEMTLTRAKFEELSAHLVERTMGPVRQALQDAGLTPADIDKVILVGGSTRIPAVQEAIKRELGKEPHKGVNPDEVVAIGAAIQGGVIAGEVKDVVLLDVTPLSLGIETMGGVFTKLIERNTTIPTSKSQVFTTAADNQTTVDIHVLQGERPMAADNKSLGRFQLTGIPPAPRGVPQIEVTFDIDANGIVHVRAKDLGTNKEQSITIKSSSGLSEEEIQRMIKEAEENAEADRKRKEAAELRNEAD
soluble on expression in E. coli: soluble

MGSDKIHHHHHHMFEKQFNHRTLETSLGPVEIEGPVTSQILATYKLDPGLTAFRQPAEQHEALVEIAALEEGRIIIARQGNDIIGYVTFLYPDPYETWSEGNNPYILELGAIEVAARFRGQQIGKKLLEVSMLDPAMEHYLILTTEYYWHWDLKGSGLSVWDYRKIMEKMMNHGGLVFFPTDDPEIASHPANCLMARIGKHVAPEVVAHFDALRLRRRFMYD
soluble on expression in E. coli: not soluble
